Values quoted from earlier work in US20080125354A1, “SELECTIVE INHIBITION OF MATRIX METALLOPROTEINASES” (Florida Atlantic University, priority 2005, published 2008).
One block for each substance: values may come before it.

Key:
[1] = target: T1, MMP-2 (Homo sapiens, UniProt P08253); settings: 30° C., 40 nM enzyme, 40 μM substrate
T1 sequence (P08253 110-660): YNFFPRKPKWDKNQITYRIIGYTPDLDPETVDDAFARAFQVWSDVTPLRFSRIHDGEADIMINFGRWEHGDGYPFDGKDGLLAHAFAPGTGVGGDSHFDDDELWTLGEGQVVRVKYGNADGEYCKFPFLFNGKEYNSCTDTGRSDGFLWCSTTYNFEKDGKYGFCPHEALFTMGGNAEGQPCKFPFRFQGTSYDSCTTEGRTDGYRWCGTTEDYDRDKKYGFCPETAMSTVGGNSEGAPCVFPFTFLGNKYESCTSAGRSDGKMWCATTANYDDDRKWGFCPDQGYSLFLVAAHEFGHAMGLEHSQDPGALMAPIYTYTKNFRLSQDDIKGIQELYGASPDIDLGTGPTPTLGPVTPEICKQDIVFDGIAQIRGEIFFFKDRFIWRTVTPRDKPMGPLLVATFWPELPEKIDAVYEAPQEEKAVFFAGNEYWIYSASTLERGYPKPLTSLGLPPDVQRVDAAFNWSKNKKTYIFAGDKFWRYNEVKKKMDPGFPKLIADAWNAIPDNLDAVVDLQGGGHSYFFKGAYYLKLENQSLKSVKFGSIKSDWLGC

[2] = target: T2, MMP-1 (Homo sapiens, UniProt P03956); settings: 30° C., 40 nM enzyme, 40 μM substrate
T2 construct: made in house
T2 sequence (P03956 100-469): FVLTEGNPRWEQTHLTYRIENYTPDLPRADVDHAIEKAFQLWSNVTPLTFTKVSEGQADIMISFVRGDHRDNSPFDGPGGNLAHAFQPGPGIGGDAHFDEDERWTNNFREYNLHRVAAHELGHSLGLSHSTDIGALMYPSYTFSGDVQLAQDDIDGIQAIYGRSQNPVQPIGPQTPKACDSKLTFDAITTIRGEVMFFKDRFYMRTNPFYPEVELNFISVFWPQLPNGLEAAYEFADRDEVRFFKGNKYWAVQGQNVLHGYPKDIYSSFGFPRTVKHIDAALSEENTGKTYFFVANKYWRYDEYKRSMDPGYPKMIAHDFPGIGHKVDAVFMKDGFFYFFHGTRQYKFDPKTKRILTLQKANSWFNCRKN

[3] = target: T3, MMP-3 (Homo sapiens, UniProt P08254); settings: 30° C., 40 nM enzyme, 40 μM substrate
T3 construct: made in house

[4] = target: T4, MMP-13 (Homo sapiens, UniProt P45452); settings: 30° C., 40 nM enzyme, 40 μM substrate
T4 construct: purchased R&D Systems (Minneapolis, Minn.)

[5] = target: MMP-14 (Homo sapiens, UniProt P50281); settings: 30° C., 40 nM enzyme, 40 μM substrate
[6] = target: T5, MMP-8 (Homo sapiens, UniProt P22894); settings: 30° C., 40 nM enzyme, 40 μM substrate
T5 construct: made in house; host or cells: CHO-K1 cells

[7] = target: T1, MMP-2; settings: MMP-2, earlier study
[8] = target: MMP-9 (Homo sapiens, UniProt P14780); settings: 30° C., 40 nM enzyme, 40 μM substrate
[9] = target: T2, MMP-1; settings: MMP-1, second earlier study

T5 sequence (P22894 101-467, species assumed): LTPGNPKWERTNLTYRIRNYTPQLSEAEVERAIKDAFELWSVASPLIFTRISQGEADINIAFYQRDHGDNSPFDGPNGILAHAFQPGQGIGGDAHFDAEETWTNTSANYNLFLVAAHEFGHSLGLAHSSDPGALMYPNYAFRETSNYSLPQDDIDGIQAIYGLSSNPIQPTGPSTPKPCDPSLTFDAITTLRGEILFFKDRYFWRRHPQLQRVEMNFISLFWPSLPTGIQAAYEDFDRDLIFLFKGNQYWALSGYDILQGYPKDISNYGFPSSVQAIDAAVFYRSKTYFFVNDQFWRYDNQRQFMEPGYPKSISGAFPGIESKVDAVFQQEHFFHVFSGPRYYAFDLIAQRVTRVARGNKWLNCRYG
Chain of MMP-9 (P14780 94-707): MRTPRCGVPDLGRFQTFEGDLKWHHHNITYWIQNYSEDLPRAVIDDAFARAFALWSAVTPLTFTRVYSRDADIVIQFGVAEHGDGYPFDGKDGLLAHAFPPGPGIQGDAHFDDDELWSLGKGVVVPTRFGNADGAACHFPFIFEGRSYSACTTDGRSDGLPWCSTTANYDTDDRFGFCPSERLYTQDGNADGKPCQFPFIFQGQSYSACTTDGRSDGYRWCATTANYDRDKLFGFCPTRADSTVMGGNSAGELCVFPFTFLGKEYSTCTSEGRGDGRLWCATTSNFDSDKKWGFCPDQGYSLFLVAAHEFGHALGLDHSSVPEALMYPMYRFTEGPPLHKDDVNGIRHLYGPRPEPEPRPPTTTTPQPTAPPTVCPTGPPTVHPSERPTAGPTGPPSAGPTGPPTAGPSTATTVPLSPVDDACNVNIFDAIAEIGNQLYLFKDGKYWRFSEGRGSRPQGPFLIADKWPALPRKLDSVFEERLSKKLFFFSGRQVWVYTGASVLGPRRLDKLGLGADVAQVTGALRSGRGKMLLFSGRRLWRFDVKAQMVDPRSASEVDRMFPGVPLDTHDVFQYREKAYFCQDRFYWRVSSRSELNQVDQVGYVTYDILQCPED
T3 sequence (P08254 100-477, species assumed): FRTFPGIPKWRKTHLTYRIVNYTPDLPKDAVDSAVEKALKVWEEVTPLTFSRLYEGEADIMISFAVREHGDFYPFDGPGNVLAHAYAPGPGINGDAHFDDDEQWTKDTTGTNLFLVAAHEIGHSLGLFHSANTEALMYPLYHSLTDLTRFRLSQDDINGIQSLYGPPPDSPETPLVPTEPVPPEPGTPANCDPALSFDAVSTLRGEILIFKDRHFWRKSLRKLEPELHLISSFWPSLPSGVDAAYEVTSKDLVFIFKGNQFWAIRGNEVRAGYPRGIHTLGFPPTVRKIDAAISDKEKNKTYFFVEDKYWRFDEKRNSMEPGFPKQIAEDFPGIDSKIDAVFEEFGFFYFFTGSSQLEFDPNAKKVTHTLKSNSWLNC

Substance: (Pro-Pro-Gly)6-NHOH
- IC50 [7]: 160 µM

Substance: (Pro-Pro-Gly)12-NHOH
- IC50 [7]: 90 µM

Substance: hydroxamate-containing peptidomimetic onto the N-terminus of (Gly-Pro-Hyp)-4-Gly-Pro-Pro-Gly-Ser-Ser [C-terminally branched construct of a second earlier study carrying a hydroxamate-containing peptidomimetic]
- IC50 [9]: ~0.009 µM

Continued, in another order:

- hydrolysis of the substrate by MMP-2 (in words) [1]: hydrolyzed the substrate efficiently
- hydrolysis of the substrate by MMP-1 (in words) [2]: hydrolyzed the substrate efficiently
- hydrolysis of the substrate by MMP-3 (in words) [3]: did not
- hydrolysis of the substrate by MMP-13 (in words) [4]: hydrolyzed the substrate efficiently
- hydrolysis of the substrate by MMP-14 (in words) [5]: hydrolyzed the substrate efficiently
- hydrolysis of the substrate by MMP-8 (in words) [6]: hydrolyzed the substrate efficiently
Substance: (Gly-Pro-Hyp)5-Gly-Pro-Gln-Gly˜Leu-Ala-Gly-Gln-Arg-Gly-Ile-Arg-(Gly-Pro-Hyp)5-NH2 [SEQ ID NO: 6]

- time to hydrolysis of the substrate by MMP-9 [8]: ≤ 1 h
Substance: C6-(Gly-Pro-Hyp)4-Gly-Pro-Pro-Gly˜Val-Val-Gly-Glu-Gln-Gly-Glu-Gln-Gly-Pro-Pro-(Gly-Pro-Hyp)4-NH2 [SEQ ID NO: 5]
- hydrolysis of the substrate by MMP-1 (in words) [2]: did not cleave the substrate even after 24 h
